From US20210347852A1 (Regeneron, published 2021) come the findings set out here.

B1: REGN10102, VEGF trap hIgG2 Fc w/2Cys (Fc fusion)
chain: SDTGRPFVEMYSEIPEIIHMTEGRELVIPCRVTSPNITVTLKKFPLDTLIPDGKRIIWDSRKGFIISNATYKEIGLLTCEATVNGHLYKTNYLTHRQTNTIIDVVLSPSHGIELSVGEKLVLNCTARTELNVGIDFNWEYPSSKHQHKKLVNRDLKTQSGSEMKKFLSTLTIDGVTRSDQGLYTCAASSGLMTKKNSTFVRVHEKVECPPCPAPPVAGPSVFLFPPKPKDTLMISRTPEVTCVVVDVSHEDPEVQFNWYVDGVEVHNAKTKPREEQFNSTFRVVSVLTVVHQDWLNGKEYKCKVSNKGLPAPIEKTISKTKGQPREPQVYTLPPSREEMTKNQVSLTCLVKGFYPSDIAVEWESNGQPENNYKTTPPMLDSDGSFFLYSKLTVDKSRWQQGNVFSCSVMHEALHNHYTQKSLSLSPGK
B2: Human VEGF121 (R&D SYSTEMS Cat #4644-VS) (ligand, UniProt P15692-9 27-147, looked up)
chain: APMAEGGGQNHHEVVKFMDVYQRSYCHPIETLVDIFQEYPDEIEYIFKPSCVPLMRCGGCCNDEGLECVPTEESNITMQIMRIKPHQGQHIGEMSFLQHNKCECRPKKDRARQEKCDKPRR

One test addresses T1, Human VEGF165 (REGN110) (human, UniProt P15692-4 27-191).
T1 construct: also called hVEGF165; REGN110-L9
Briefly: SPR (Biacore 3000), 25C, trap captured by REGN18, hVEGF165 injected. How it is done: Equilibrium dissociation constants (KD values) for human VEGF₁₆₅ binding to various purified VEGF mini-trap constructs were determined using a real-time surface plasmon resonance biosensor using a Biacore 3000 instrument. All binding studies were performed in 10 mM HEPES, 150 mM NaCl, 3 mM EDTA, and 0.05% v/v Surfactant Tween-20; pH 7.4 (HBS-ET) running buffer at 25° C. The Biacore sensor surface was first derivatized by amine coupling with a monoclonal mouse anti-VEGFR1 antibody (REGN18) to capture VEGF mini-trap constructs. Binding studies were performed on the following human VEGF reagents: human VEGF₁₆₅. […] Dissociation of bound VEGF₁₆₅ reagent from VEGF mini-trap constructs was monitored for 60 minutes in HBS-ET running buffer. Kinetic association (ka) and dissociation (kd) rate constants were determined by fitting the real-time sensorgrams to a 1:1 binding model using Scrubber 2.0c curve fitting software. Binding dissociation equilibrium constants (KD) and dissociative half-lives (t1/2) were calculated from the kinetic rate constants as: […]

For test [1], the target named is B2. Briefly: cell-based or functional assay.
The target of test [2] is B2. Kind of test: cell-based or functional assay. This is another data set of the same source.
Test [3] addresses T2, VEGFR1 chimeric receptors Flt1(1-7)-IL18Rα / Flt1(1-7)-IL18Rβ on HEK293/D9 reporter cells (UniProt P17948 27-758; Q13478 351-541; P17948 27-758; O95256 378-599, limits assumed). Briefly: cell-based or functional assay.
The target in test [4] is T2, VEGFR1 chimeric receptors …. Kind of test: cell-based or functional assay. The source holds these as a separate data set.

T2 sequence (P17948 other isoform, or with tags, fused parts or gaps mutant limits assumed, chain 1 of 2): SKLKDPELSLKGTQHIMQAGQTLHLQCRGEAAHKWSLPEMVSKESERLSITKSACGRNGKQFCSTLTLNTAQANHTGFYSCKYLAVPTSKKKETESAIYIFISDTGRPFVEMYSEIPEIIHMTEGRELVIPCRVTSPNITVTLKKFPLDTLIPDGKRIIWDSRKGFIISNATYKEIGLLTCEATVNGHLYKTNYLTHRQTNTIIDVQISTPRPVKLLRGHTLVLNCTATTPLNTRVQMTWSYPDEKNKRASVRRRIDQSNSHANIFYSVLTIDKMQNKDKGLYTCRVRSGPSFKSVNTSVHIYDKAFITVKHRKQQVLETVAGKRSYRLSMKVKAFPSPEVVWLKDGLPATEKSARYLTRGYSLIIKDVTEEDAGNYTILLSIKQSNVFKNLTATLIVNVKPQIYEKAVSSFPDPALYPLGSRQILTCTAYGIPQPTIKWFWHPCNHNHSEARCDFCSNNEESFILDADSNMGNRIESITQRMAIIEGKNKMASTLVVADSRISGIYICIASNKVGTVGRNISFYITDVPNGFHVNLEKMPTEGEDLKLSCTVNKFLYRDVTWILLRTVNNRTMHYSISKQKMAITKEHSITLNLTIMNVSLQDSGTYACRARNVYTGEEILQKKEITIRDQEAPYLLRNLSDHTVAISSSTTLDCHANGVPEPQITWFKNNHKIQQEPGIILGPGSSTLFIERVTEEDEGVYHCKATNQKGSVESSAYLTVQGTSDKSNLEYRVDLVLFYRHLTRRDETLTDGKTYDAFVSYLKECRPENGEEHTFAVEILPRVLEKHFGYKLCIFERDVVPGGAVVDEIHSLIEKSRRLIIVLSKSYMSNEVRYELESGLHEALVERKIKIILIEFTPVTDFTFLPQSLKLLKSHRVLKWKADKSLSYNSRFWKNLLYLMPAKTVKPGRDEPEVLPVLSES
T2 sequence (P17948 other isoform, or with tags, fused parts or gaps mutant limits assumed, chain 2 of 2): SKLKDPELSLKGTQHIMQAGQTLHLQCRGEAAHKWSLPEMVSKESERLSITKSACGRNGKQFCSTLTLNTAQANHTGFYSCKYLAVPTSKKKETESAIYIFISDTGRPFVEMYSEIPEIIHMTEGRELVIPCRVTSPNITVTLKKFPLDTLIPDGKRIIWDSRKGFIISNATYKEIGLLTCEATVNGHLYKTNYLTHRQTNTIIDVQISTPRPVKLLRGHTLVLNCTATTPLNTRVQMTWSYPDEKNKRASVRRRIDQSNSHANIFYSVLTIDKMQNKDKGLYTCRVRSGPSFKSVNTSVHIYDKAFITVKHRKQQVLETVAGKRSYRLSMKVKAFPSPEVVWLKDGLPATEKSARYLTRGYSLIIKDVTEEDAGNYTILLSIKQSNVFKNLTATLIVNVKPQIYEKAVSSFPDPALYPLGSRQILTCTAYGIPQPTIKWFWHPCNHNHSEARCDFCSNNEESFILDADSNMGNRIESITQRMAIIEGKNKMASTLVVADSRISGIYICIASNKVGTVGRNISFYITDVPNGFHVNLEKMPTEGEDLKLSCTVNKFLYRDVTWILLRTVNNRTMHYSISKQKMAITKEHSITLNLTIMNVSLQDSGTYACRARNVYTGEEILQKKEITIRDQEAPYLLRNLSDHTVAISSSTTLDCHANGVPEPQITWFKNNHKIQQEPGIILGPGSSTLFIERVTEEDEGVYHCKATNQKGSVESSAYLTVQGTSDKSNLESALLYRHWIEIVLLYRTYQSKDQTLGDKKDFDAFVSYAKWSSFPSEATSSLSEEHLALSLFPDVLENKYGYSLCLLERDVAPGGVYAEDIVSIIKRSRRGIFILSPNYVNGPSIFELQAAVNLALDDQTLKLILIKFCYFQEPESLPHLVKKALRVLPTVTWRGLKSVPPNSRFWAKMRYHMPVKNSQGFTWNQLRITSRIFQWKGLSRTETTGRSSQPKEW

With B1, in the test with Human VEGF165 (REGN110), the “2.5 nM hVEGF165 Bound (RU)” value was 6.6 RU; binding was put at a Kd of 0.0026 nM; the koff (usually a measure of how fast the partners let go of each other) was determined as 2.77e-05 s⁻¹; the kon (in general, the rate constant with which the complex forms) was 1.06e+07 M⁻¹ s⁻¹. The t½ (usually the time in which the quantity being followed falls by half) with Human VEGF165 (REGN110) worked out at 6.95 h. The “IC50 (read off the curve); NFkB-luciferase reporter (RLU), 293/D9/VEGFR1 cells, VEGF121 constant 40 pM [C]” value in test [1] was around 1e-11 M. For the same molecule, the “IC50, Inhibition of 20 pM VEGF121, VEGFR1 assay (luciferase)” value in test [2] was found to be 1.43e-11 M.

As for B2, in test [3], the “EC50 of activation of HEK293/D9/Flt-IL18Rα/Flt-IL18Rβ (VEGFR1) luciferase reporter cells” value is around 0.03 nM. In addition, in test [4], the “EC50 (read off the curve); NFkB-luciferase reporter (RLU), 293/D9/VEGFR1 cells, VEGF121 titrated alone [A]” value is around 0.1 nM.
